The subject of one data set is human B2M. The data set is described as follows: CRISPR/Cas9-mediated deletion of B2M in HEK293 (lipofection, FACS). It is filed as cell-based. Conditions: lipofection of tracrRNA, gRNA and Cas9 mRNA; FACS after 72 h.
A further data set deals with CD8+ T-cells. Put plainly: LSC/T-cell reaction assay. The format is cell-based, human. Conditions: B2M/HLA-Class I negative LSCs co-cultured 10 days with CD8+ T-cells from 4 donors. The method, then: An LSC/T-cell assay was performed in flat bottom 96well synthemax coated plates in duplicates and incubated in 5% CO2 at 37° C. for 10 days. RPMI-1640 supplemented with HEPES (100 µM), non-essential aas (10x), sodium pyruvate (10 mM), 2-Mercapthoethanol (10x), 10% FBS and 1% Penicillin-Streptomycin (Gibco by Life Technologies) was used as medium for co-culture. Alternatively, RPMI-1640 supplemented with HEPES (10 mM), non-essential aas (1x), sodium pyruvate (1 mM), 2-Mercapthoethanol (1x), 10% FBS and 1% Penicillin-Streptomycin (Gibco by Life Technologies) was used as medium for co-culture.
One day before co-culture, LSCs (stimulator cells) were passed and cultured to a confluency of around 70% (30′000 - 50′000 cells) and cultured with LSC medium including compound. On day two, peripheral blood mononuclear cells (PBMC) were separated using EDTA blood with the Ficoll-Paque method (GE Healthcare Life Sciences, cat #17-1440-03). […]
After 10 days, CD8+ cells were transferred to a U-bottomed 96-well plate and washed 3 times using autoMAC rinsing solution (Miltenyi Biotec, Cat #130-091-222) including MACS BSA stock solution (Miltenyi Biotec, Cat #130-091-376). Cells were measured on a BD LSRFortessa X-20. FACS data were analyzed using BD FACSDiva software and FlowJo software.

The subject of data set [1] is genomic DNA purified from male human peripheral blood mononuclear cells. Put plainly: Biochemical assay for potential off-target genomic sites cleaved by Cas9 and B2M guides. Conditions: number of potential off-target sites, guide concentration 64 nM. As for the experimental part: A biochemical method (See, e.g., Cameron et al., Nature Methods. 6, 600-606; 2017) was used to determine potential off-target genomic sites cleaved by Cas9 and selected B2M guides. Guides showing B2M indel activity were tested for potential off-target genomic cleavage sites with this assay. […] The number of potential off-target sites detected using a guide concentration of 64 nM in the biochemical assay are shown in Table 10. As a result of this analysis, several gRNAs were selected for analysis of potential off-target activity in limbal stem cells.

B1: 1-CR004366: gRNA targeting human B2M; targeting domain SEQ ID NO: 108; sgRNA SEQ ID NO: 120; from Dharmacon (nucleic acid)
guide: GAGUAGCGCGAGCACAGCUAGUUUUAGAGCUAGAAAUAGCAAGUUAAAAUAAGGCUAGUCCGUUAUCAACUUGAAAAAGUGGCACCGAGUCGGUGCUUUU
modifications: listed as RNA, chemistry not given here
notes: gRNA targeting human B2M; from Dharmacon
Regarding B1, the “B2M knockout efficiency in HEK293” value in the data set on human B2M worked out at 70%. For the same molecule, in the data set with CD8+ T-cells, the “T-cell immune response in co-culture with gene edited LSCs” value is listed as “almost completely eliminated”. Further, the “off-target Site_ Count” value in data set [1] is reported as 69.

The record behind these values is patent US20230348852A1, “METHODS AND COMPOSITIONS FOR OCULAR CELL THERAPY” (NOVARTIS AG, priority 2020, published 2023).
